Substitutions are numbered along the chain they refer to.
Tests used:
[1] = tested on: T1, C(PEG5K)GGGLVPRGGG-RRAPGKLT-Asp-LASY-Lys-WLFWTGIA
T1 sequence: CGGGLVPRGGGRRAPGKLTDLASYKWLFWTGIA

[2] = tested on: T2, SRIrTVSPGSrSASGKSTCLASYCWLFWTGIA
T2 sequence: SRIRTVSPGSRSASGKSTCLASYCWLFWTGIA

[3] = tested on: T3, MQIRQAHQPR RSAPQ KLTCLASYCWLFWTGIA
T3 sequence: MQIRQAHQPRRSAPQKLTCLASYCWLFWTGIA

[4] = tested on: T4, RRAPGKLTCLASYCWLF WSGIA PQPPNMRPSV
T4 sequence: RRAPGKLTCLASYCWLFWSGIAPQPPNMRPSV

[5] = tested on: T5, SKQGRPISSDrRASGKSTCLASYCWLFWTGIA
T5 sequence: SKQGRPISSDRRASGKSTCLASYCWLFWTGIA

k-MeLeu-TCLASYCWLA = tested on: T6, k-MeLeu-TCLASYCWLA
T6 sequence: KLTCLASYCWLA

[6] = tested on: T7, RRAPGKLQCLASYCWLFWTGIAAAAGAP
T7 sequence: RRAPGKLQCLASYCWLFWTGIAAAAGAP

[7] = tested on: T8, RRAPGKLT-Asp-LASY-Orn-WLFWTGIA-COOH
T8 sequence: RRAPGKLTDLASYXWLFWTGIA

[8] = tested on: T9, SKQGRAISPDrRAAGKLTCLASYCWLFWTGIA
T9 sequence: T5 sequence with P6A, S9P, S14A, S17L

KLTCLASYCwLF = tested on: T10, KLTCLASYCwLF
T10 sequence: KLTCLASYCWLF

[9] = tested on: T11, RRAPGKLT-Dap-LASY-Asp-WLFWTGIA-COOH
T11 sequence: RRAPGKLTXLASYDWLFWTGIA

[10] = tested on: T12, RRAPGKLK(PEG2-Biotin)CLASYCWLFWTGIA
T12 sequence: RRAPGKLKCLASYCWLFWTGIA

[11] = tested on: T13, RRAPGKLTCLASYCWLF WTAVG GQPYMLLAWR
T13 sequence: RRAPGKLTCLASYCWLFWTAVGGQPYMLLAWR

[12] = tested on: T14, RRAPGKLTC-MeLeu-ASYCWLFWTGIA
T14 sequence: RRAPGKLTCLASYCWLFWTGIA

[13] = tested on: T15, PRIrTVGPGSrSASGKSTCLASYCWLFWTGIA-PEG4-Pra
T15 sequence: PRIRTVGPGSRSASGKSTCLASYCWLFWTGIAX

[14] = tested on: T16, RRAPGKLT-Asp-LASY-Dap-WLFWTGIA-COOH
T16 sequence: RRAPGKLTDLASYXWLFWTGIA

compound 6 = tested on: T17, compound 6
T17 sequence: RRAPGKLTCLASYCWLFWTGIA

R-k-MeLeu-TCLASYCWLF = tested on: T18, R-k-MeLeu-TCLASYCWLF
T18 sequence: RKLTCLASYCWLF

rRAPGKSTCLASYCWLFWTGIA = tested on: T19, rRAPGKSTCLASYCWLFWTGIA
T19 sequence: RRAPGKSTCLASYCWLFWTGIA

[15] = tested on: T20, rRAPGKLTCLASYCWLFWTGIA-COOH
T20 sequence: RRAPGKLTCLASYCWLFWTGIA

[16] = tested on: T21, RRAPGKCTALASYAWCFWTGIA-COOH
T21 sequence: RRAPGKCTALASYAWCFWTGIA

[17] = tested on: T22, RRAPGKCTALASYCWLFWTGIA-COOH
T22 sequence: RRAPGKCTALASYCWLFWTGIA

[18] = tested on: T23, PRIRTVGPGSRSASGKLTCLASYCWLFWTSIA
T23 sequence: T2 sequence with S1P, S7G, S17L, G30S

[19] = tested on: T24, CRRAPGKLQCLASYCWLFWTGIAGGSGGC
T24 sequence: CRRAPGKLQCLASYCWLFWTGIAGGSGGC

[20] = tested on: T25, SKQGAPISPDrRAAGKLTCLASYCWLFWTGIA
T25 sequence: T5 sequence with R5A, S9P, S14A, S17L

[21] = tested on: T26, Lys(palmitoyl)-PEG16-Lys(PEG2-Biotin)-PEG16-rRAPGKLTCLASYCWLFWTGIA
T26 sequence: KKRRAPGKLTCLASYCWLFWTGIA

[22] = tested on: T27, RRAPGKLTCLASYCWLF GSGIS LSRAPESAAP
T27 sequence: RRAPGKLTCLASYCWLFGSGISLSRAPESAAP

[23] = tested on: T28, RRAPGCLTALASYCWLFWTGIA-COOH
T28 sequence: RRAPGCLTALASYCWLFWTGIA

QQRQIKMSCLASYCWLFGSIPW = tested on: T29, QQRQIKMSCLASYCWLFGSIPW
T29 sequence: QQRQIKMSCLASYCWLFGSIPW

[24] = tested on: T30, PRISTVGPGSRSASGKLTCLASYCWLFWTGIA
T30 sequence: T2 sequence with S1P, R4S, S7G, S17L

KLSCQAGQCWVF = tested on: T31, KLSCQAGQCWVF
T31 sequence: KLSCQAGQCWVF

[25] = tested on: T32, C(N-PEG5kmaleimide)-PEG4-LVPR-PEG4-rRAPGKLTCLASYCWLFWTGIA
T32 sequence: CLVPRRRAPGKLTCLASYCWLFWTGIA

[26] = tested on: T33, RRAPGKLTCLASYCWLF WRGFA ERASEDTNQG
T33 sequence: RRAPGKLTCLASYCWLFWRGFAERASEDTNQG

RGRSAKLTCLASYCWLFFGVIL = tested on: T34, RGRSAKLTCLASYCWLFFGVIL
T34 sequence: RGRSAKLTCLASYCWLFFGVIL

MeLys-LTCLASYCWLF = tested on: T35, MeLys-LTCLASYCWLF
T35 sequence: KLTCLASYCWLF

[27] = tested on: T36, PRIRTVGPGSRSASGKLTCLASYCWLAWTGIA
T36 sequence: T2 sequence with S1P, S7G, S17L, F27A

compound 18 = tested on: T37, compound 18
T37 sequence: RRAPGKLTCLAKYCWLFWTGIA

[28] = tested on: T38, SKQGRPISPDrRAAGKLTCLASYCW-NMeLeu-FWTGIA
T38 sequence: T5 sequence with S9P, S14A, S17L

[29] = tested on: T39, RRAPGKLTCLASYCK(PEG2-Biotin)LFWTGIA
T39 sequence: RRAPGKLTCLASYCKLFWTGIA

[30] = tested on: T40, RRAPGKLTCLASYCWLK(PEG2-Biotin)WTGIA
T40 sequence: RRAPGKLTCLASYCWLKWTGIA

KLTCLASACWLF = tested on: T41, KLTCLASACWLF
T41 sequence: KLTCLASACWLF

KLTALASYAWLF = tested on: T42, KLTALASYAWLF
T42 sequence: KLTALASYAWLF

[31] = tested on: T43, RRAPGK(PEG2-Biotin)LTCLASYCWLFWTGIA
T43 sequence: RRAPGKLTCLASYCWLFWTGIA

[32] = tested on: T44, RRAPGKLTCLASYCWLFWTGK(PEG2-Biotin)A
T44 sequence: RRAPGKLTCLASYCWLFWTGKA

rRAAGKLTCLASYCWLFATGIA = tested on: T45, rRAAGKLTCLASYCWLFATGIA
T45 sequence: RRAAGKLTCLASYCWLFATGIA

[33] = tested on: T46, aigtwflwcysalctlkgparr (retro-inverso)
T46 sequence: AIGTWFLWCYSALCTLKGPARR

[34] = tested on: T47, PRIRTVGPGSRSASGKLTCLASYCWLFWSGIA
T47 sequence: T2 sequence with S1P, S7G, S17L, T29S

## human Factor IXa
[1]
  Vmax, FXa generation assay; (++) means 1-2: (++)
[2]
  Vmax, FXa generation assay: > 3
[3]
  Vmax, FXa generation assay: > 2
[4]
  Vmax, FXa generation assay: > 3
[5]
  Vmax, FXa generation assay: > 3
k-MeLeu-TCLASYCWLA
  Vmax, FXa generation assay: > 2
[6]
  Vmax, FXa generation assay; (++) means 1-2: (++)
[7]
  Vmax, FXa generation assay; (++) means 1-2: (++)
[8]
  Vmax, FXa generation assay: > 3
KLTCLASYCwLF
  Vmax, FXa generation assay: > 3
[9]
  Vmax, FXa generation assay: > 0.8
[10]
  Vmax, FXa generation assay; (++) means 1-2: (++)
[11]
  Vmax, FXa generation assay; (++) means 1-2: (++)
[12]
  Vmax, FXa generation assay; (++) means 1-2: (++)
[13]
  Vmax, FXa generation assay: > 3
[14]
  Vmax, FXa generation assay; (++) means 1-2: (++)
Compound 6
  Vmax, FXa generation assay with hFIXa: > 2
R-k-MeLeu-TCLASYCWLF
  Vmax, FXa generation assay: > 3
rRAPGKSTCLASYCWLFWTGIA
  Vmax, FXa generation assay; (++) means 1-2: (++)
[15]
  Vmax, FXa generation assay: > 2
[16]
  Vmax, FXa generation assay: > 2
[17]
  Vmax, FXa generation assay; (++) means 1-2: (++)
[18]
  Vmax, FXa generation assay: > 3
[19]
  Vmax, FXa generation assay: > 2
[20]
  Vmax, FXa generation assay: > 3
[21]
  Vmax, FXa generation assay: > 3
[22]
  Vmax, FXa generation assay: > 3
[23]
  Vmax, FXa generation assay: > 2
QQRQIKMSCLASYCWLFGSIPW
  Vmax, FXa generation assay; (++) means 1-2: (++)
[24]
  Vmax, FXa generation assay: > 3
KLSCQAGQCWVF
  Vmax, FXa generation assay: > 2
[25]
  Vmax, FXa generation assay; (++) means 1-2: (++)
[26]
  Vmax, FXa generation assay: > 2
RGRSAKLTCLASYCWLFFGVIL
  Vmax, FXa generation assay: > 2
MeLys-LTCLASYCWLF
  Vmax, FXa generation assay; (++) means 1-2: (++)
[27]
  Vmax, FXa generation assay: > 3
Compound 18
  Vmax, FXa generation assay with hFIXa: > 2
[28]
  Vmax, FXa generation assay: > 1.9
[29]
  Vmax, FXa generation assay; (++) means 1-2: (++)
[30]
  Vmax, FXa generation assay: > 2
KLTCLASACWLF
  Vmax, FXa generation assay: > 2
KLTALASYAWLF
  Vmax, FXa generation assay: > 2
[31]
  Vmax, FXa generation assay; (++) means 1-2: (++)
[32]
  Vmax, FXa generation assay; (++) means 1-2: (++)
rRAAGKLTCLASYCWLFATGIA
  Vmax, FXa generation assay; (++) means 1-2: (++)
[33]
  Vmax, FXa generation assay: > 2
[34]
  Vmax, FXa generation assay: > 3

Source: patent US20140303084
